Experimental data taken from publication doi:10.1101/2023.01.26.525744.

What was measured:
Experiment in all cases: NMR titration
[1] = biological target: paxillin LIM2/3 tandem domain (aa380-499) (human) (UniProt P49023)
[2] = biological target: cytoplasmic tail of human integrin β1 (aa758-798) (human) (UniProt P05556)
[3] = biological target: cytoplasmic tail of human integrin β3 (aa748-788) (human) (UniProt P05106)

Chain of UniProt P05556 (P05556 758-798): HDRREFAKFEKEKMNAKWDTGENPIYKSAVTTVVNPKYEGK

Substance | Kd [1] [µM] | Kd [2] [µM] | Kd [3] [µM]
cytoplasmic tail of human integrin β3 (aa748-788) (from UniProt P05106 748-788) (domain or fragment) | 532 |  | 
paxillin LIM2/3 tandem domain (aa380-499) (from UniProt P49023-2 380-499) (domain or fragment) |  | 52 | 528
